Source: patent US7981863B2, “Treatment of Parkinson's disease with PDGF” (Neuronova AB, priority 2001, dated 2011)

System: MPTP-lesioned mice
Assay: MPTP-induced neuronal loss in substantia nigra pars compacta, intraventricular infusion
Format: in vivo, mouse
Conditions: for Total number of tyrosine hydroxylase neurons in the bilateral substantia nigra pars compacta: PDGF-BB intraventricularly 0.1 μg/h/kg for three days, two months later, Mean ± S.E.M
Method: Ten-week old male C57B1/6 mice (25 g, B&K Universal, Stockholm, Sweden).
PDGF-BB (Sigma) was administered directly into the right lateral ventricle of the brain using osmotic pumps (Alza 1003D, delivery of 1.0 μl/h for three days) and brain infusion kits. The drug solution was prepared as follows: 10 μg PDGF-BB was dissolved in 10 μl 1M HAc, after which pH was adjusted to 7.4 by adding 10 μl NaOH. A buffer was added (100 ml 0.01M PBS containing 5 mg/ml BSA and 20 mM Hepes) to a final volume of 4,000 μl. Each minipump was connected to a brain infusion needle, which was stereotaxically placed in the right lateral ventricle of the mouse brain in deeply anesthetized mice (chloral hydrate 60 mg/kg intraperitoneal). The pump was placed subcutaneously in the neck. The delivery rate of PDGF-BB was 0.1 μg/h/kg body weight. ^3H-thymidine (6.7 Ci/ml, NEN) was given for three days via another Alzet pump which was placed intraperitoneally.
One hour after the pumps were inserted, the neurotoxin 1-methyl-4-phenyl-1,2,3,6-tetrahydropyridine (MPTP HCl, Sigma) was given subcutaneously (40 mg/kg).
Two months later, animals were anesthetized with choral hydrate (60 mg/kg ip) and sacrificed by intracardial infusion of fixative (4% paraformaldehyde in 0.1 M phosphate buffered saline (PBS) containing 0.4% picric acid. After dissection, postfixation in the same fixative continued for 1.5 h followed by cryoprotection. After dissection of the midbrain, the two sides of the brain were separated with a cut along the ventro-dorsal midline and the tissue was postfixed in the same solution and cryoprotected in sucrose. Cryostat sections were prepared as follows: a randomly chosen half-brain was cut into 40 μm thick sections through the full rostro-caudal extension of substantia nigra pars compacta. A randomly chosen series of every 6th section was taken to perform free-floating immunohistochemistry using a polyclonal anti-tyrosine hydroxylase antibody (diluted 1:400, Pel-Freez) in order to identify dopaminergic neurons in the tissue. To visualize the antibody, the avidin-biotin peroxidase kit (Vector) with 0.03% DAB as chromagen was used adding 0.01% H2O2. Cresyl violet was employed to identify the nucleolus, Nissl substance and glia cells (Chan et al., 1997; Walters et al., 1999). The other half of the brain was sectioned in 10 μm thick sections on glass and a randomly chosen series of every 6th section was immunohistochemically stained for tyrosine hydroxylase in dopaminergic neurons as previously described. To detect incorporation of the ^3H-thymidine nucleotide in brain cells, the sampled slides were dipped in NTB2 nuclear track emulsion (Kodak) and stored in light-tight boxes at −20° C. for four weeks. […]

B1: PDGF-BB: human recombinant PDGF-BB, platelet derived growth factor B-chain homodimer (protein)
chain: SLGSLTIAEPAMIAECKTRTEVFEISRRLIDRTNANFLVWPPCVEVQRCSGCCNNRNVQCRPTQVQLRPVQVRKIEIVRKKPIFKKATVTLEDHLACKCETVAAARPVT
cell number in the substantia nigra (MPTP lesioned mice after infusion of PDGF): double
Total number of tyrosine hydroxylase neurons in the bilateral substantia nigra pars compacta (MPTP-lesioned (40 mg/kg s.c.)): 10,000 ± 200
MPTP-induced loss of tyrosine hydroxylase positive nerve cells (after an MPTP lesion): completely counteracted
Total number of tyrosine hydroxylase neurons in the bilateral substantia nigra pars compacta (no MPTP lesion): 12,300 ± 300
